Measured values reported in doi:10.1101/2024.03.19.585761.

Target: ErbB2 (natural, endogenous in BT474 and MCF7 cells) (human (endogenous in MCF7 and BT474)) (UniProt P04626)
Assay: PICO

ErbB2:ErbB3 complexes per cell (ppc), BT474 mock, antibody pair TTZ-2F12: 662 ppc
ErbB2:ErbB3 complexes per cell (ppc), BT474 mock, antibody pair TTZ-Ab90: 831 ppc
ErbB2:ErbB3 complexes per cell (ppc), MCF7 dactolisib, antibody pair TTZ-2F12: 8670 ppc
ErbB2:ErbB3 complexes per cell (ppc), MCF7 mock, antibody pair TTZ-2F12: 4370 ppc
ErbB2:ErbB3 complexes per cell (ppc), MCF7 mock, antibody pair TTZ-Ab90: 5200 ppc
ErbB2:ErbB3 complexes per cell, BT474 dactolisib (molecules per cell): < 181
percent of ErbB2 bound to ErbB3, BT474 mock: 0.09%
Substance: ErbB3 (endogenous in BT474 and MCF7 cells) (from UniProt P21860 20-1342) (receptor)
